Measured values taken from article PMC2133002 (The Journal of Cell Biology, 1998).

T1: rbet1 (rat (endogenous in rat liver), UniProt Q62896 1-118)
T1 sequence: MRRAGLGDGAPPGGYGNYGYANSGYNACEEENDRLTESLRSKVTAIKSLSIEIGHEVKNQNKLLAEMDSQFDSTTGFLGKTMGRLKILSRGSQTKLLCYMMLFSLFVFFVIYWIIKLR

T2: membrin (rat (endogenous in rat liver), UniProt O35165 1-212)
T2 sequence: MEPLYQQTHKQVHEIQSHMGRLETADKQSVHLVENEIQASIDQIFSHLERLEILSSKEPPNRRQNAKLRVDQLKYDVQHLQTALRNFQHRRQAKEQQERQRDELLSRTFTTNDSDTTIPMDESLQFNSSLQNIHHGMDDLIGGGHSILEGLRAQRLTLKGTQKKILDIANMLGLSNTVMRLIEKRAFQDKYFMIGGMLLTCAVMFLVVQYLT

T3: Golgi SNARE of 28 kD (GOS-28) (rat (endogenous in rat liver), UniProt Q62931 1-250)
T3 sequence: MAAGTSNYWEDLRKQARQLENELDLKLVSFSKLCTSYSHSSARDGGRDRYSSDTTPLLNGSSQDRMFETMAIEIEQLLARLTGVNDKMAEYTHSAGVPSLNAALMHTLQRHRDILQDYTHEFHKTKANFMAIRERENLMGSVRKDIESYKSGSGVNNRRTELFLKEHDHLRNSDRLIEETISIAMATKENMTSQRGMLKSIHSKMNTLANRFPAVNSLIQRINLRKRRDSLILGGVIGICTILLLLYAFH


Tests used:
Test in all cases: co-IP
[1] = target: membrin (rat (endogenous in rat liver)) (UniProt O35165)
[2] = target: rbet1 (rat (endogenous in rat liver)) (UniProt Q62896)
rbet1 = target: T1, rbet1
membrin = target: T2, membrin
[3] = target: T3, Golgi SNARE of 28 kD (GOS-28)

| Molecule | efficiency of coprecipitation (arbitrary units) [2] | efficiency of coprecipitation (rbet1) | efficiency of coprecipitation (membrin) | efficiency of coprecipitation [3] | further results |
| --- | --- | --- | --- | --- | --- |
| rbet1 (from UniProt Q62896 1-118) (natural protein) | – | – | – | – | efficiency of coprecipitation (arbitrary units) [1]: 115 |
| rsec22b (from UniProt Q4KM74 1-215) (natural protein) | 247 | – | – | – | – |
| syntaxin 5, 31-kD form (degradation product of the 41-kD isoform) (domain or fragment) | 139 | – | – | – | – |
| membrin (from UniProt O35165 1-212) (natural protein) | 308 | – | – | – | – |
| syntaxin 5, 41-kD isoform (natural protein) MIPRKRYGSKNTDQGVYLGLSKTQVLSPATAINSSSDIAPLPTPVALVPSPPDTMSCRDRTQEFLSACKSLQSRQNGIQTNKPALHATRQCSEFTLMARRIGKDLSNTFAKLEKLTILAKRKSLFDDKAVEIEELTYIIKQDINSLNKQIAQLQDFVRAKGSQSGRHLQTHSNTIVVSLQSKLASMSNDFKSVLEVRTENLKQQRNRREQFSRAPVSALPLAPNNLGGGPIVLGGESRASRDVAIDMMDPRTSQQLQLIDEQDSYIQSRADTMQNIESTIVELGSIFQQLAHMVKEQEETIQRIDENVLGAQLDVEAAHSEILKYFQSVTSNRWLMVKIFLILIVFFIIFVVFLA | – | 129 arbitrary units | 25 arbitrary units | 30 arbitrary units | – |
| syntaxin 5, 34-kD isoform (natural protein) MSCRDRTQEFLSACKSLQSRQNGIQTNKPALHATRQCSEFTLMARRIGKDLSNTFAKLEKLTILAKRKSLFDDKAVEIEELTYIIKQDINSLNKQIAQLQDFVRAKGSQSGRHLQTHSNTIVVSLQSKLASMSNDFKSVLEVRTENLKQQRNRREQFSRAPVSALPLAPNNLGGGPIVLGGESRASRDVAIDMMDPRTSQQLQLIDEQDSYIQSRADTMQNIESTIVELGSIFQQLAHMVKEQEETIQRIDENVLGAQLDVEAAHSEILKYFQSVTSNRWLMVKIFLILIVFFIIFVVFLA | – | 128 arbitrary units | 37 arbitrary units | 134 arbitrary units | – |
